In publication PMC11098746 (2024) one finds binding score data, which are given here for 7 molecules.

This assay concerns the target FGFR4 ectodomain (Homo sapiens, UniProt P22455). The experiment in a line: AVEXIS normalised luminescence.

No end group written: not given here.

B1: 43 (protein)
chain: LFQEYQCYGSSSNTRVLNELNYDNAGTNLYNELEMNYYGKQENWYSLKKNSRSLGENDDGNNEDNEKLRKPKHKKLKQPADGNPDPNANPNVDPN
modifications: bait human Fc-tagged dimer
Molecule B1 displayed a binding score of 1.37.

MNEAKEEKTNMRNNHLSRVTIEILPSDEDNDIFDINDALLDELIGINNI (also: human Fc-tagged dimer) [65] registered a binding score of 1.05.

B2: 49 (protein)
chain: SDSYSTGGNEKEKIFMDNYKYMWTYIYFLQKRIMMKKLSHPLYMSKKFILLHNPKDIEEFRIPLKDTLWSYVDRNSIKGFININLDSIFDIDLKEYYVHDKENMANSEKSEDLECIDAYVQKTNEIYYNMADTKDEAYIFICKKCKHIYKDIKECREKSMQLMIQNMKITVPQIRLKYDKKNRNNEEIIINIPVTYVLSNLLSSLKKTVTYNTDDLNNACNVLIKMLHLDLLKILYNLQYHNGIFNGITEKYLIEFRNIFVKRQKTNTEDNNDMIWEECFVLKKSIDKIMNINSFLLTKSRNRYMDYLQNRRKRYRDILFMITYNVADMNLNTYIKSIYNYIHISTKIIEDIQYIYNQEVYATFFVRTELIETYLLRNPKQLKNTCSIYIMITISWFFNQINIGMYNKNKNVYDLFKEKFSKSNVKQIINSIYTNNVENKANILQICNDAMTNTIELIKKVIKNYYKQNNVLSNYNINFAGLIKFIDIQILRMKFIQSTLEKQPLIEYDTLNDDHLNNDAIIKRENMVCMMKYISNKINTYISLLKKSDLQTIMLQNYDKYNIYLDTYFTHNENVFFCSSPGQYLIIKIFFYSFFNILNIYG
modifications: bait human Fc-tagged dimer
The molecule B2 registered a binding score of 0.996.

B3: 4 (protein)
chain: KVYQGQFYLKKNEKIHYLTKFSCNIGTCQFSIKMKLRDNIAAKLLNNYYKLNNKALKEMENDKDDGNNHNNNKYDDDNNNNNNRANKLLHMDYDNAYYVLSNQDLEYIPQRITLMQDIEQRYVNKNDKCYAFGNLKNSHMFNIPFYFKYSDLVNSKTYNLKNFINNKYSMSFNAIHSELKNNKLLQSEILNYGPILNEKNSNYAYKEIYAKTTHRVHVWFLMFDDCYDNFIRNLKLNIKTKLAYWEYLLHASKKFDISSLNDMDIKQDTSYNDFQNEETEKDIYSKENINNNNNNNMNNNMNEKKNKAIFYKSFNFDKITLLENPKRFLFLEEQFTKSEINDISFFLKYYQFKKMKNFNNMYNNLYKNGYYEQVIDYIYQNEGFHIEYEVNIFQTNKAHFSYE
modifications: bait human Fc-tagged dimer
B3 returned a binding score of 0.9.

B4: 5 (protein)
chain: YNIKSGNTANNIKYVNVLDNDRDINTHSVLPEVENVIERKDIYRQINFMETFVSSNNMMHDREKHTSNDAGSYEITGIVDGMKIGHPISVALGSQYSNYFDYLQIVHLDYTNSRFSFTVGEGKYYLRTYGSTYMTPSAIKIKVPCEKCKFINSEYSGIIKIIPYETNNNLFIYNWVLQTSSPLALENINTVFSDEADLIHGNSLSEEFKIDSSAAATSLNTFYGIVLHGIWSSEYAERLLTVISEFPDCVKMSAHDKNARSKQRKNQKWILVNEDLGSFDMKMEVCEEVNCDYSAIIHVSKHAFEYSKKLVHNRGRNGRYYSRRVEKILIRALLSLDFSLFITYFQQKHGVTLLDPQYDYELITNMAGYSSNNYQSWNHNLEELVELATSWDEYPKGLQKVQGLSYLLRRKNGAKHPVYPTAPAVAFPAGSQNNAFIEFMESAFVNYVDISHLVIHEVAHFIWVNTVSKELKEKWIQIGQWYKEPLSPSEWATKLEVEFVSAYAHDKNPAEDFAESMATYVLNSKLLNSRSFDKFKWIQDNLFGGGFYITTGTHKFDVINLGNEVYYFPGKVTRVRAKVLGSPTEDKLVKIYISLLSSDGSEGCAKHGYARIFSEQQTFRDLYFHTEDRSPCSHKLYGEFTMNKHESRGRWTAESMIFTGENNIERYVGLGSFHFYLYVNNQNEDVEKPIPLLDSISIYTHNAAETNDALLRLHVMVLENELIKEHGGPYASFAAHENKAYSYESRTYKMYPPEFNTLMLKADYFIRDINTRGFREVNMDSCKSYTNMDTRNLKCFQVLNPVTIPKYCIGSTYFLRQVSIEDIAGNLETVNIASDKYSARLHPIGVRDKQKPVVSNVRVSSKPANEYHDGETIVSLSFNVHDNLAGVYYIFVYLRDPHGGKHRSDIDRASLPTGTENKQINHKILLPKGSMGGTWMLEEIKAVDSCKNEARNIYTHSVYVQND
modifications: bait human Fc-tagged dimer
The molecule B4 showed a binding score of 0.798.

B5: 23 (protein)
chain: ENVDTFKCNYAKKKKNGHHIKRHITNDEEKKKEYSFLMLGKENEEENKENKENNQNVNKDNNDNNNNEKKNEEQNHNNEKKQEEVINNNNNNVENKKEEENHNNDKKTDEQNHVNEKKQEGENNKHKKDDTIPPEKKINKENLLEYGTHDKEGHFIPSYKTLTDEILSTNNAMEKASSFLKIACSHVMKLIEFIPESKLSSQYIKVDNKNIYLKDIAVECQNIYFNLEKFSMTLIVFNSKINKFIYSQEK
modifications: bait human Fc-tagged dimer
With B5, the binding score was 0.913.

B6: 68 (protein)
chain: LIRNSNTPQAFLIPELNNNEKNEFNNNEKNEMNNNLNNEFNNNEENCDIQKIAEEMMENLLNENDMYTNIMLSLQNRLSDDYLCSEPKYENICIHEKDKISLSFPCSNPKYEKLIHKFTFKKLCNSKAAFNNALLKSFIEEDEEQNTFSLMLKQFKILLTCVDDELKDIYKESIDLLVDLKTSITELTQKLWSGKMVNVLKKREFLITGILCELRNGNKAPLISKSLEFENLGILKMNNEELLNEAYNAFSDYYYFFPYFIQKLLEKGGMIERLIKIHENLAKYRTKDMVNKINAQSKGEVLNNEDILNKLNAYKHYTKHGATSFIQSREVKIVNQNVNNDDTTKNQQQNVNNNEKLNNNNNNNNNQQVNNNNNNNNQQVNNNNNNNNNQVNNNNNNNNNQVNNNNYNNNNQVNNNNNNNQQVNNNNNYNNQLNNNNFNNNLQVNKNDKHVPKNNHATATHTNNILYNPLYSINPEKPKDIIKLLKDLIKYLHIVKFENNEPTTNIDEEGIRKLLENSFFDLNDDILIVRLLLKPQTVILTVIQSFMLMTPSPSRDAKAYCKKALINDQLVPTNDANILSEENELVNNFATKYVLIYEKMKLQELKEMEESKLKMKYSKTNLAALQVTNPQNNKDKNDASNKNNNPNNAATPLIAVVTDLSGEKTEDIINNNVDIATLSVGVQNTFQGP
modifications: bait human Fc-tagged dimer
In the case of B6, the binding score worked out at 0.952.
